Measured values from patent publication US20210163606A1 (ATYR PHARMA, published 2021).

Tests used:
[1] = target: T1, cynomolgus monkey NRP2 on transfected Expi293 cells (cynomolgus monkey); test: flow cytometry on Cyno NRP2-transfected Expi293 cells
T1 construct: whole, on cells; Plasmid bought from Origene; transient transfection; also called Cyno NRP2
Description: Binding of a-NRP2 to cynomolgus monkey NRP2-transfected Expi293 cells. Cynomolgus monkey (cyno) NRP2-transfected Expi293 cells were collected by centrifugation at 300 g for 5 minutes, and washed twice by DPBS (with calcium and magnesium, ThermoFisher Cat #14040133).
Washed cells were added to a 96-well V-bottom plate (ThermoFisher Cat #1424572) at 100,000 cells/well in 50 μL of DPBS added with Zombie Violet viability stain (Biolegend Cat #423114, diluted at 1:500). From this step on, cells were protected from light. Cells were kept at room temperature for 10 min and pelleted down at 300 g for 5 minutes at 4° C. Supernatants containing Zombie Violet were discarded, and without washing, 30 uL of antibodies diluted in the flow wash buffer (FWB, DPBS plus 2% FBS and 0.1% sodium azide to inhibit receptor internalization) were added to the cells. For a-NRP2 staining on Cyno NRP2-transfected Expi293 cells, in-house human anti-NRP2 antibodies were tested at final concentrations of 0.006-100 nM at 4-fold dilutions. For each test, NRP2 over-expression on the cell surface was validated by a-NRP2 staining (10 μg/mL R&D #AF567 a-NRP2) in separate wells. Binding was allowed to proceed on ice for 40-60 minutes. Cells were then pelleted at 300 g for 5 minutes at 4° C., supernatants removed, and cells washed twice by adding 150 μL of FWB and centrifuging the cells again in the same conditions. To detect a-NRP2 binding on the cell surface, Cy3-conjugated goat anti-human IgG Fc or AF647-conjugated donkey anti-goat IgG (Jackson ImmunoResearch Cat #109165098 & 705605147) was added to the cells at a final concentration of 3 μg/mL in 30 μL of FWB. After 30-40 minutes of incubation on ice, cells were pelleted at 300 g for 5 minutes at 4° C. and supernatants removed, and the cells were washed twice as described previously. […] Cells were then analyzed on FlowJo analysis software by excluding dead cells and gating singlets.
The EC₅₀ of three anti-NRP2 antibodies, each against a distinct domain of NRP2, were measured for binding to Cyno NRP2-transfected Expi293 cells (see Table E2 and FIG. 4).

[2] = target: T2, mouse NRP2 I383V on transfected Expi293 cells (Mouse, UniProt O35375 21-931); test: flow cytometry, aNRP2-10v10 at 10 nM on transfected Expi293 cells gated on live, single, NRP2 expressing cells [panel 11B]
T2 construct: whole, on cells; also called 1383V
T2 sequence (looked up): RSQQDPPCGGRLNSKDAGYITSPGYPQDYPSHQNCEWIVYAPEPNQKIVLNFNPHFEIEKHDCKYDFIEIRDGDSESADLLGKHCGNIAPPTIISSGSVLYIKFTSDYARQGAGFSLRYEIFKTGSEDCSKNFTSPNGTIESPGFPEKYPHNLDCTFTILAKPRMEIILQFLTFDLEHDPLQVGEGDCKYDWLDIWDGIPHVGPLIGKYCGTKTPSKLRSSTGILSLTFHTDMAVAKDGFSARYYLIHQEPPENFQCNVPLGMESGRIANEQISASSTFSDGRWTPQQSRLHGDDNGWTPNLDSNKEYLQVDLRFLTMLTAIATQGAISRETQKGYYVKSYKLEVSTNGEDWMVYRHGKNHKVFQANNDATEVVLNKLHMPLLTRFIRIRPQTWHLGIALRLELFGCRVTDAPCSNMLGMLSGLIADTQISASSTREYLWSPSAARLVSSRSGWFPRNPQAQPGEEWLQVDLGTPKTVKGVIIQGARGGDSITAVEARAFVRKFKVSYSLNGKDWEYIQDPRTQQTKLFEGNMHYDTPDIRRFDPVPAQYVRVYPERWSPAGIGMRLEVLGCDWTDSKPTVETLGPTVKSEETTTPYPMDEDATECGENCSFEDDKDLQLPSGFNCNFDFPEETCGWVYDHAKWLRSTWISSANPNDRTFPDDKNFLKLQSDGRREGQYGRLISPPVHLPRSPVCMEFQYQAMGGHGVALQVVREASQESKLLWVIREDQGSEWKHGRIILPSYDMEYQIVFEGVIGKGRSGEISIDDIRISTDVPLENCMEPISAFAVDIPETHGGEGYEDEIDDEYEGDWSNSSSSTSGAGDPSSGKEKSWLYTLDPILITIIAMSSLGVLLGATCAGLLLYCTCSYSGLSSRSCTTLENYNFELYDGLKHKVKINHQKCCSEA
Description: FIGS. 11A-11B show the measurement of antibody binding to Expi293 cells over-expressing NRP2. […] Gating for NRP2 over-expressing cells is shown.
Human NRP2a (version 2; see Table N1) and mouse NRP2v2 cDNAs were obtained from Origene. […] Human and mouse NRP2, expression vectors, along with expression vectors encoding all 6 mutants were transfected into Expi293 cells at 1 million cells/mL, by standard techniques. Approximately 40 hours post transfection cells were co-stained with aNRP2-10v10, and a species agnostic anti-NRP2 a1 specific binding antibody.

EC50 [1]: 2.9 nM
binding result [2]: no binding (tested: 10 nM)
B1: aNRP2-10v10 (antibody, V domains shown)
VH: EVQLVQSGAEVKKPGATVKISCKVSGFNIKDYYVHWVQQAPGKGLEWMGRIDVEDDETKYAPKFQGRVTITADTSTDTAYMELSSLRSEDTAVYYCATPIYGAREAWFAYWGQGTLVTVSS
VL: DIQMTQSPSSLSASVGDRVTITCTASSSVSSSYLHWYQQKPGKAPKLLIYRTSNLASGVPSRFSGSGSGTDFTLTISSLQPEDFATYYCHQYYRSPPTFGGGTKVEIK
